Assay results taken from US20230257794A1.

Experiments:
HIV-RSC3 = experiment: biolayer interferometry (Octet); fragment secreted by L. gasseri SP1
TNFα [1] = target: TNFα (UniProt P01375); experiment: biolayer interferometry (Octet); fragment secreted by L. gasseri
TNFα [2] = target: TNFα (UniProt P01375); experiment: biolayer interferometry; fragment secreted by L. rhamnosus GG SP1

UniProt P01375, sequence (P01375 77-233 limits assumed): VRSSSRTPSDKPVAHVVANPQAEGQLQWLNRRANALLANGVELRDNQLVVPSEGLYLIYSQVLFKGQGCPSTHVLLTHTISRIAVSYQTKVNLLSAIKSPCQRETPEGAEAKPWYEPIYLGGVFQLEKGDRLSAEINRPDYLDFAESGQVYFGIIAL

Row | Substance | Kd (HIV-RSC3) [nM] | Kd (TNFα [1]) [nM] | Kd (TNFα [2]) [nM]
1 | VRC01scFv (anti-HIV single chain fragment derived from the broadly neutralizing IgG antibody VRC01) | 10.2 |  | 
2 | ozoralizumab (anti-TNFα NANOBODY / antibody fragment marketed by Ablynx) (VHH) |  | 0.69 | 6.2
